Measured values published in PMC2138209.

Target: 7S subunit of the lemon shark 19S immunoglobulin (lemon shark, Negaprion brevirostris)
Test: AUC

Substance: 7S subunit of the lemon shark 19S immunoglobulin (complex)
- stoichiometry N: 5
